Measurements from the supplement of paper PMC7877785.
± gives the uncertainty stated by the source.

Assay: self-splicing fitness, log relative to wild type (ln ratio); higher = more splicing; Tetrahymena group I intron in knt gene, E. coli kanamycin selection, DiMSum; sequences stand for … in CUCUCU…GGAGGGAAAAGUUAUCAGGCAUGCACCUGGUAGCUAGUCUUUAAACCAAUAGAUUGCAUCGGUUUAAAAGGCAAGACCGUCAAAUUGCGGGAAAGGGGUCAACAGCCGUUCAGUACCAAGUCUCAGGGGAAACUUUGAGAUGGCCUUGCAAAGGGUAUGGUAAUAAGCUGACGGACAUGGUCCUAACCACGCAGCCAAGUCCUAAGUCAACAGAUCUUCUGUUGAUAUGGAUGCAGUUCACAGACUAAAUGUCGGUCGGGGAAGAUGUAUUCUUCUCAUAAGAUAUAGUCGGACCUCUCCUUAAUGGGAGCUAGCGGAUGAAGUGAUGCAACACUGGAGCCGCUGGGAACUAAUUUGUAUGCGAAAGUAUAUUGAUUAGUUUUGGAGUACUCGUGGUCG
Method in brief: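 A randomised library covering all eight P1ex-region intron nucleotides was built with the intron in the knt kanamycin-resistance gene on pET-22b(+) and held in E. coli BL21(DE3). Cells were grown overnight at 37°C or 30°C on LB agar, with or without 25 μg/mL kanamycin, plus 100 μg/mL carbenicillin, 50 μM IPTG and 0.2% rhamnose, and pooled colonies were amplicon-sequenced on an Illumina HiSeq 2500. DiMSum fitness is the error-weighted combination of wild-type-normalised replicate fold changes, kanamycin versus none.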

Sequence | self-splicing fitness (ln) (30 °C) | self-splicing fitness (ln) (37 °C)
ACCUAGCAAUAUUACGAAAG | -2.49 ± 0.11 | -2.2 ± 0.13
UGGAAGCAAUAUUACGACUU | 0.319 ± 0.15 | 0.0401 ± 0.17
CGCUAGCAAUAUUACGCCCG | -2.1 ± 0.22 | -0.695 ± 0.35
CAGAAGCAAUAUUACGUACU | -1.83 ± 0.13 | -1.22 ± 0.12
UUAGAGCAAUAUUACGAUUU | -2.08 ± 0.18 | -1.88 ± 0.26
AAGCAGCAAUAUUACGACUC | -0.122 ± 0.097 | 0.677 ± 0.13
ACCUAGCAAUAUUACGGCCC | -0.812 ± 0.18 | -0.39 ± 0.24
AUUCAGCAAUAUUACGACUC | -0.805 ± 0.19 | 0.11 ± 0.19
AUCGAGCAAUAUUACGCUGC | -2.59 ± 0.45 | 
UUCCAGCAAUAUUACGGGGA |  | -2.87 ± 0.29
GUCUAGCAAUAUUACGAUGC | 0.169 ± 0.14 | -0.841 ± 0.13
AGGGAGCAAUAUUACGUUUA | -2.68 ± 0.33 | -2.33 ± 0.31
GCUUAGCAAUAUUACGGCUC | -0.359 ± 0.098 | 0.0516 ± 0.12
CACAAGCAAUAUUACGCAAU | -3.31 ± 0.23 | -3.31 ± 0.26
CACCAGCAAUAUUACGAAGC | -3.27 ± 0.15 | -2 ± 0.14
GAGCAGCAAUAUUACGGUAG | -4.29 ± 0.2 | -3.24 ± 0.24
CAUCAGCAAUAUUACGAUCA | -0.959 ± 0.11 | -0.294 ± 0.13
UUAAAGCAAUAUUACGAGCC | -2.3 ± 0.15 | -1.42 ± 0.27
GACCAGCAAUAUUACGACGA | -0.236 ± 0.091 | 0.15 ± 0.1
GCGGAGCAAUAUUACGCGGU | -1.68 ± 0.44 | 
UCAGAGCAAUAUUACGGCGA | -0.324 ± 0.072 | -0.417 ± 0.076
AGAAAGCAAUAUUACGGGGA | -3.05 ± 0.17 | -2.07 ± 0.17
CGAGAGCAAUAUUACGAGCG | -0.966 ± 0.11 | -1.72 ± 0.18
GACCAGCAAUAUUACGGCUU | -0.0255 ± 0.055 | -0.293 ± 0.07
AACUAGCAAUAUUACGGUAU | -1.31 ± 0.072 | -0.479 ± 0.092

Sequence | self-splicing fitness (ln) (30 °C) | self-splicing fitness (ln) (37 °C)
UCAUAGCAAUAUUACGGAUC | -3.73 ± 0.28 | -2.38 ± 0.22
AUACAGCAAUAUUACGUCGA | -1.77 ± 0.13 | -1.23 ± 0.12
UUGCAGCAAUAUUACGCAAC |  | -2.11 ± 0.22
GCCUAGCAAUAUUACGCCCU | -0.974 ± 0.097 | 0.335 ± 0.13
GAAAAGCAAUAUUACGGUAA | -1.98 ± 0.12 | -1.18 ± 0.12
AGGCAGCAAUAUUACGGGUC | -2.67 ± 0.17 | -3.01 ± 0.22
AAAGAGCAAUAUUACGGCCC | -3.78 ± 0.37 | -1.59 ± 0.34
GUUCAGCAAUAUUACGGCGA | -1.16 ± 0.19 | 0.354 ± 0.18
GUUUAGCAAUAUUACGCCUG | -2.62 ± 0.25 | -1.39 ± 0.26
GAGCAGCAAUAUUACGAGGC | -2.67 ± 0.47 | 
AUAUAGCAAUAUUACGAGCC | -2.89 ± 0.32 | -2.08 ± 0.37
CGUGAGCAAUAUUACGUGUG | -1.39 ± 0.1 | -0.501 ± 0.1
GGAUAGCAAUAUUACGGUGU | -1.3 ± 0.059 | -1.05 ± 0.083
CGACAGCAAUAUUACGGAGA | -2.18 ± 0.15 | -3.29 ± 0.28
CGGUAGCAAUAUUACGUGCA | -1.61 ± 0.12 | -0.501 ± 0.13
GCAAAGCAAUAUUACGUUGG | -1.94 ± 0.069 | -1.32 ± 0.09
GUUAAGCAAUAUUACGGUUG | -3.12 ± 0.28 | -1.22 ± 0.24
UAUUAGCAAUAUUACGGUAG | -2.42 ± 0.21 | -0.417 ± 0.17
AAAGAGCAAUAUUACGUUUA | -1.71 ± 0.17 | -1.12 ± 0.21
UCCCAGCAAUAUUACGAUAC | -2.17 ± 0.19 | -2.45 ± 0.44
UUUGAGCAAUAUUACGGAAA | -2.01 ± 0.21 | -1.95 ± 0.24
ACAGAGCAAUAUUACGUGGG | -2.64 ± 0.12 | -2.4 ± 0.16
AUUGAGCAAUAUUACGACGG | -4.09 ± 0.31 | -3.4 ± 0.26
AUUGAGCAAUAUUACGAACU | -1.9 ± 0.23 | -0.643 ± 0.2
AACAAGCAAUAUUACGCUUA | -2.08 ± 0.1 | -1.21 ± 0.1

Sequence | self-splicing fitness (ln) (30 °C) | self-splicing fitness (ln) (37 °C)
AGCUAGCAAUAUUACGUACA | -2.25 ± 0.23 | 0.0781 ± 0.18
AACAAGCAAUAUUACGAGAC | -1.88 ± 0.11 | -2.67 ± 0.19
AGGGAGCAAUAUUACGGCGC | -2.78 ± 0.5 | -1.23 ± 0.35
CGGGAGCAAUAUUACGUUGU | -4.45 ± 0.29 | -2.65 ± 0.26
GUAGAGCAAUAUUACGAGUU | -2.39 ± 0.2 | -1.85 ± 0.2
AGCCAGCAAUAUUACGUUGA | -3.31 ± 0.13 | -2.04 ± 0.16
CAACAGCAAUAUUACGCAAA | -3.57 ± 0.33 | -2.37 ± 0.14
UUAAAGCAAUAUUACGCUCC | -1.79 ± 0.19 | -1.08 ± 0.24
UGGAAGCAAUAUUACGACAC | -2.87 ± 0.17 | -3.13 ± 0.25
CAGUAGCAAUAUUACGAUGG | -0.609 ± 0.077 | -0.119 ± 0.11
GUCGAGCAAUAUUACGAAGU | -1.31 ± 0.33 | -1.65 ± 0.4
CUAAAGCAAUAUUACGUCCA | -3.01 ± 0.19 | -2.79 ± 0.31
AGUGAGCAAUAUUACGAACC | -0.739 ± 0.16 | -0.869 ± 0.24
UAUCAGCAAUAUUACGGUGG | -1.2 ± 0.077 | -0.377 ± 0.088
UAGUAGCAAUAUUACGACUG | 0.526 ± 0.14 | -0.333 ± 0.17
CAGUAGCAAUAUUACGGGUC | -3.88 ± 0.37 | -1.32 ± 0.24
CCCUAGCAAUAUUACGAGAA | -2.85 ± 0.45 | -2.67 ± 0.44
CGACAGCAAUAUUACGUUGA | -3.63 ± 0.15 | -1.85 ± 0.1
AGAUAGCAAUAUUACGGAGC | -3.24 ± 0.29 | -1.5 ± 0.28
CUGAAGCAAUAUUACGUUAA | -3.39 ± 0.16 | -2.65 ± 0.28
CUCGAGCAAUAUUACGGAUG | -2.21 ± 0.13 | -1.46 ± 0.17
CUGUAGCAAUAUUACGCUUU | -3.83 ± 0.17 | -3.19 ± 0.21
CUGCAGCAAUAUUACGCUUC |  | -1.03 ± 0.21
CUAAAGCAAUAUUACGGCGU | -3.68 ± 0.23 | -3.05 ± 0.35
CUAAAGCAAUAUUACGAUUC | -3.33 ± 0.31 | -3.73 ± 0.46

Sequence | self-splicing fitness (ln) (30 °C) | self-splicing fitness (ln) (37 °C)
UUCAAGCAAUAUUACGGGUU | -2.38 ± 0.12 | -0.76 ± 0.12
GUGCAGCAAUAUUACGCUUU | -1.26 ± 0.066 | -0.18 ± 0.074
CUGCAGCAAUAUUACGGCAC | -3.13 ± 0.14 | -0.857 ± 0.12
AUUGAGCAAUAUUACGAGAA | -2.35 ± 0.45 | -2.62 ± 0.26
AGCGAGCAAUAUUACGUGUA | -2.83 ± 0.12 | -1.98 ± 0.13
CCGCAGCAAUAUUACGCAGU | -2.96 ± 0.18 | -1.48 ± 0.17
UCCAAGCAAUAUUACGCCAC |  | -1.13 ± 0.33
UGAAAGCAAUAUUACGGACC | -0.608 ± 0.13 | -0.126 ± 0.16
ACAAAGCAAUAUUACGCUAU | -2.38 ± 0.088 | -0.848 ± 0.092
GCUGAGCAAUAUUACGUCCA | -1.97 ± 0.27 | -2.32 ± 0.37
UCAGAGCAAUAUUACGACAG | -2.53 ± 0.19 | -2.92 ± 0.36
CCUUAGCAAUAUUACGCGUG | -2.33 ± 0.12 | -2.61 ± 0.12
AUCUAGCAAUAUUACGAUGG | -3.59 ± 0.2 | -1.75 ± 0.19
CAAAAGCAAUAUUACGUCAA | -3.34 ± 0.11 | -2.86 ± 0.12
GUCUAGCAAUAUUACGCGCA | -0.481 ± 0.098 | 0.157 ± 0.087
GCAAAGCAAUAUUACGGUAC | -1.91 ± 0.086 | 0.0303 ± 0.092
UCAGAGCAAUAUUACGCUGU | -2.98 ± 0.26 | 
CAAGAGCAAUAUUACGGCAG | -1.54 ± 0.091 | -0.926 ± 0.13
GCCGAGCAAUAUUACGCGCA | -1.42 ± 0.19 | -0.221 ± 0.14
GAGUAGCAAUAUUACGGCGA | -0.645 ± 0.16 | -0.441 ± 0.2
CCUUAGCAAUAUUACGAUUA | -2.28 ± 0.28 | -2.61 ± 0.32
AACUAGCAAUAUUACGUGCA | -0.72 ± 0.054 | -0.578 ± 0.065
